Starred links: 1 amine or outer side, 2 acyl side, 3 side chain; linkers in the order of their positions; H or OH if unused. Positions of bridges follow the written chain, without caps; N, C: chain ends. Non-standard residues stand in square brackets, D forms with d. Primed or numbered codes have the meaning given here. No end group written: not given here. Tyr(OMe) = O-methyl tyrosine, COc1ccc(C[C@H](N[*:1])C(=O)[*:2])cc1; mXylyl(5) = bridging moiety between the two residues (meta-xylyl); mXylyl = bridging moiety between residues (mXylyl(i,j)); Trp(7-aza) = N[C@@H](Cc1c[nH]c2ncccc12)C(=O)O; NMePhe(4-F) = CN[C@@H](Cc1ccc(F)cc1)C(=O)O; PEG2000 = polyethylene glycol, 2000 Da; Phe(4-F) = N[C@@H](Cc1ccc(F)cc1)C(=O)O; mXylylene = c1cc(C[*:1])cc(C[*:2])c1; oXylylene = c1ccc(C[*:2])c(C[*:1])c1; pXylylene = c1cc(C[*:2])ccc1C[*:1]; Chg = N[C@H](C(=O)O)C1CCCCC1; Phg = N[C@H](C(=O)O)c1ccccc1; Tle = CC(C)(C)[C@H](N)C(=O)O; NMeS = CN[C@@H](CO)C(=O)O; NMeA = CN[C@@H](C)C(=O)O; Nva = CCC[C@H](N)C(=O)O; Sar = CNCC(=O)O
Target: human C5 protein (human, UniProt P01031 19-673; P01031 678-1676)
Assay: cell-based or functional assay

PEG2000-[Nva][Nva]YEN[Tle]Y[Trp(7-aza)]EYP[Phg][Nva]-NH2 [R3078]
Avg. IC50, human hemolysis assay (complete human sera): 568 nM

B1: R3072 (peptide)
peptide: Ac-[Nva][Nva]YEN[Tle]Y[Trp(7-aza)]EYP[Chg][Nva]K-NH2
SMILES: CCC[C@H](NC(C)=O)C(=O)N[C@@H](CCC)C(=O)N[C@@H](Cc1ccc(O)cc1)C(=O)N[C@@H](CCC(=O)O)C(=O)N[C@@H](CC(N)=O)C(=O)N[C@H](C(=O)N[C@@H](Cc1ccc(O)cc1)C(=O)N[C@@H](Cc1c[nH]c2ncccc12)C(=O)N[C@@H](CCC(=O)O)C(=O)N[C@@H](Cc1ccc(O)cc1)C(=O)N1CCC[C@H]1C(=O)N[C@H](C(=O)N[C@@H](CCC)C(=O)N[C@@H](CCCCN)C(N)=O)C1CCCCC1)C(C)(C)C
Avg. IC50, human hemolysis assay (complete human sera): 26.9 nM

MCVERFCD[Tle]Y[Trp(7-aza)]EYP[Phg][Nva]-NH2 (linker 2-7 via mXylyl(5)) [R3057]
Avg. IC50, human hemolysis assay (complete human sera): 12.4 nM

MCVERFC-NH2 (linker 2-7 via mXylyl(5)) [R3047]
Avg. IC50, human hemolysis assay (complete human sera): > 100000 nM

Ac-[Nva]C[Phg]T[Trp(7-aza)]E[Tyr(OMe)][NMeS]HC[Nva]-NH2 (linker 2-10 via mXylyl(5)) [R3074]
Avg. IC50, human hemolysis assay (complete human sera): 308 nM

Ac-[Nva]C[Phg]T[Trp(7-aza)]EY[NMeS]HC[Nva]-NH2 (bridge 2-10) [R3042]
Avg. IC50, human hemolysis assay (complete human sera): > 100000 nM

MCVERFCDVYW-NH2 (linker 2-7 via mXylyl) [R3044]
Avg. IC50, human hemolysis assay (complete human sera): > 50000 nM

[Nva]CY[NMeS][Phg][NMePhe(4-F)][NMeS]H[NMePhe(4-F)][Sar]C-NH2 (linker 2-11 via mXylyl(5)) [R3051]
Avg. IC50, human hemolysis assay (complete human sera): > 100000 nM

Ac-[Nva]C[Phg]T[Trp(7-aza)]EYPHC[Nva]-NH2 (linker 2-10 via pXylylene) [R3065]
Avg. IC50, human hemolysis assay (complete human sera): 394 nM

Ac-[Nva]C[Phg]T[Trp(7-aza)]EY[NMeS]HC[Nva]P[Nva] (bridge 2-10) [R3040]
Avg. IC50, human hemolysis assay (complete human sera): > 100000 nM

Ac-[Nva]C[Phg]TAEY[NMeS]HC[Nva]-NH2 (linker 2-10 via mXylyl) [R3034]
Avg. IC50, human hemolysis assay (complete human sera): > 50000 nM

Ac-CVERFCDVYWEF-NH2 (linker 1-6 via mXylyl(5)) [R3048]
Avg. IC50, human hemolysis assay (complete human sera): 19.3 nM

Ac-[Nva]CKE[Phg]YC[NMeS][Tle]K[Trp(7-aza)]EY-NH2 (linker 2-7 via mXylyl) [R3007]
Avg. IC50, human hemolysis assay (complete human sera): 314 nM

B2: R3041 (peptide)
peptide: Ac-YEN[Tle]YWEYP[Phg][Nva]-NH2
SMILES: CCC[C@H](NC(=O)[C@@H](NC(=O)[C@@H]1CCCN1C(=O)[C@H](Cc1ccc(O)cc1)NC(=O)[C@H](CCC(=O)O)NC(=O)[C@H](Cc1c[nH]c2ccccc12)NC(=O)[C@H](Cc1ccc(O)cc1)NC(=O)[C@@H](NC(=O)[C@H](CC(N)=O)NC(=O)[C@H](CCC(=O)O)NC(=O)[C@H](Cc1ccc(O)cc1)NC(C)=O)C(C)(C)C)c1ccccc1)C(N)=O
Avg. IC50, human hemolysis assay (complete human sera): 71.3 nM

Ac-[Nva]C[Chg]T[Trp(7-aza)]EY[NMeS]HC[Nva]-NH2 (linker 2-10 via pXylylene) [R3058]
Avg. IC50, human hemolysis assay (complete human sera): > 10000 nM

B3: R3077 (peptide)
peptide: Ac-[Nva][Nva]YEN[Tle]Y[Trp(7-aza)]EYP[Chg][Nva]K
modifications: not fully specified (residue 14, C-terminus); printed as Ac-Nvl-Nvl-Y-E-N-Tbg-Y-azaTrp-E-Y-P-Chg-Nvl-K-(PEG2000) NH2; also: PEG2000 at C-terminal Lys, attachment site unstated
Avg. IC50, human hemolysis assay (complete human sera): 81.7 nM

Ac-[Nva]C[Phg]A[Trp(7-aza)]EY[NMeS]HC[Nva]-NH2 (linker 2-10 via mXylyl) [R3033]
Avg. IC50, human hemolysis assay (complete human sera): 131 nM

[Nva]CY[NMeS][Phg][NMePhe(4-F)][NMeS]H[NMePhe(4-F)]GC-NH2 (linker 2-11 via mXylyl(5)) [R3075]
Avg. IC50, human hemolysis assay (complete human sera): > 75000 nM

B4: R3004 (peptide)
peptide: Ac-[Nva]CYNN[Tle]E[Trp(7-aza)]EYP[Phg][Tle]-NH2
SMILES: CCC[C@H](NC(C)=O)C(=O)N[C@@H](CS)C(=O)N[C@@H](Cc1ccc(O)cc1)C(=O)N[C@@H](CC(N)=O)C(=O)N[C@@H](CC(N)=O)C(=O)N[C@H](C(=O)N[C@@H](CCC(=O)O)C(=O)N[C@@H](Cc1c[nH]c2ncccc12)C(=O)N[C@@H](CCC(=O)O)C(=O)N[C@@H](Cc1ccc(O)cc1)C(=O)N1CCC[C@H]1C(=O)N[C@H](C(=O)N[C@H](C(N)=O)C(C)(C)C)c1ccccc1)C(C)(C)C
Avg. IC50, human hemolysis assay (complete human sera): 53.5 nM

Ac-[Nva]C[Phg]T[Trp(7-aza)]AY[NMeS]HC[Nva]-NH2 (linker 2-10 via mXylyl) [R3035]
Avg. IC50, human hemolysis assay (complete human sera): > 50000 nM

Ac-[Nva]C[Phg]T[Trp(7-aza)]EY[NMeS]AC[Nva]-NH2 (linker 2-10 via mXylyl) [R3038]
Avg. IC50, human hemolysis assay (complete human sera): 140 nM

Ac-[Nva]C[Phg]T[Trp(7-aza)]EY[NMeA]HC[Nva]-NH2 (linker 2-10 via mXylyl) [R3037]
Avg. IC50, human hemolysis assay (complete human sera): 276 nM

Ac-[Nva]C[Phg]T[Trp(7-aza)]EY[NMeS]HCA-NH2 (linker 2-10 via mXylyl) [R3039]
Avg. IC50, human hemolysis assay (complete human sera): 240 nM

Ac-[Nva]C[Phg]T[Trp(7-aza)]EA[NMeS]HC[Nva]-NH2 (linker 2-10 via mXylyl) [R3036]
Avg. IC50, human hemolysis assay (complete human sera): > 50000 nM

Ac-AC[Phg]T[Trp(7-aza)]EY[NMeS]HC[Nva]-NH2 (linker 2-10 via mXylyl) [R3031]
Avg. IC50, human hemolysis assay (complete human sera): 1090 nM

MCVERFCDVY-NH2 (linker 2-7 via mXylyl) [R3045]
Avg. IC50, human hemolysis assay (complete human sera): > 100000 nM

Ac-[Nva]C[Phg]T[Trp(7-aza)]E[Phe(4-F)][NMeS]HC[Nva]-NH2 (linker 2-10 via mXylyl(5)) [R3073]
Avg. IC50, human hemolysis assay (complete human sera): 403 nM

[Nva]CY[Tle][Phg]N[Sar]LC[Phg][NMeA]-NH2 (linker 2-9 via mXylyl(5)) [R3052]
Avg. IC50, human hemolysis assay (complete human sera): > 100000 nM

B5: R3005 (peptide)
peptide: Ac-[Nva]CY[Trp(7-aza)][Sar][Tle][Nva][Trp(7-aza)]EYP[Phg]P-NH2
SMILES: CCC[C@H](NC(C)=O)C(=O)N[C@@H](CS)C(=O)N[C@@H](Cc1ccc(O)cc1)C(=O)N[C@@H](Cc1c[nH]c2ncccc12)C(=O)N(C)CC(=O)N[C@H](C(=O)N[C@@H](CCC)C(=O)N[C@@H](Cc1c[nH]c2ncccc12)C(=O)N[C@@H](CCC(=O)O)C(=O)N[C@@H](Cc1ccc(O)cc1)C(=O)N1CCC[C@H]1C(=O)N[C@H](C(=O)N1CCC[C@H]1C(N)=O)c1ccccc1)C(C)(C)C
Avg. IC50, human hemolysis assay (complete human sera): 66.7 nM

B6: R3006 (peptide)
peptide: Ac-YEN[Tle]Y[Trp(7-aza)]EY[Sar][Nva][NMeS]-NH2
SMILES: CCC[C@H](NC(=O)CN(C)C(=O)[C@H](Cc1ccc(O)cc1)NC(=O)[C@H](CCC(=O)O)NC(=O)[C@H](Cc1c[nH]c2ncccc12)NC(=O)[C@H](Cc1ccc(O)cc1)NC(=O)[C@@H](NC(=O)[C@H](CC(N)=O)NC(=O)[C@H](CCC(=O)O)NC(=O)[C@H](Cc1ccc(O)cc1)NC(C)=O)C(C)(C)C)C(=O)N(C)[C@@H](CO)C(N)=O
Avg. IC50, human hemolysis assay (complete human sera): 267 nM

Ac-[Nva]CAT[Trp(7-aza)]EY[NMeS]HC[Nva]-NH2 (linker 2-10 via mXylyl) [R3032]
Avg. IC50, human hemolysis assay (complete human sera): > 10000 nM

Ac-[Nva]C[Phg]T[Trp(7-aza)]EY[NMeS]HC[Nva]-NH2 (linker 2-10 via oXylylene) [R3049]
Avg. IC50, human hemolysis assay (complete human sera): > 3100 nM

B7: R3053 (peptide)
peptide: [Nva]CCN[Tle][Phg]C[Tle][NMeS]C[Tle]-NH2
modifications: linker (positions not given here) via mXylylene; also: mXylyl-bicyclo: Cys pairing not given here
Avg. IC50, human hemolysis assay (complete human sera): > 100000 nM

MCVERFCDV-NH2 (linker 2-7 via mXylyl(5)) [R3046]
Avg. IC50, human hemolysis assay (complete human sera): > 100000 nM
